Test [1] addresses T1, short form of human CCRL2 (CRAM-B) (human) (UniProt O00421).
T1 sequence: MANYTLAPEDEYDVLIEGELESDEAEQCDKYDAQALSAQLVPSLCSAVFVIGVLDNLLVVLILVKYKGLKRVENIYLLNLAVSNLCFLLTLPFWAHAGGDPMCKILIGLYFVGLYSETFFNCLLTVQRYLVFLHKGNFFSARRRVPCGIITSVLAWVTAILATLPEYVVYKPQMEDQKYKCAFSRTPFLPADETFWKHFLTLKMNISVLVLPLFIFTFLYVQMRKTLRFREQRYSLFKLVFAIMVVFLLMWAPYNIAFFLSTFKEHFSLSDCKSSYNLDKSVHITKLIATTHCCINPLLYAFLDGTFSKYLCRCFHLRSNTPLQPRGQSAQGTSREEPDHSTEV
The test can be described thus: cell-based or functional assay.

Test [2] addresses Corticotropin Releasing Factor Receptor (CRFR), CRF-R1 (UniProt P34998). The test is described as follows: cell-based or functional assay.
UniProt P34998, sequence (P34998 24-415 limits assumed): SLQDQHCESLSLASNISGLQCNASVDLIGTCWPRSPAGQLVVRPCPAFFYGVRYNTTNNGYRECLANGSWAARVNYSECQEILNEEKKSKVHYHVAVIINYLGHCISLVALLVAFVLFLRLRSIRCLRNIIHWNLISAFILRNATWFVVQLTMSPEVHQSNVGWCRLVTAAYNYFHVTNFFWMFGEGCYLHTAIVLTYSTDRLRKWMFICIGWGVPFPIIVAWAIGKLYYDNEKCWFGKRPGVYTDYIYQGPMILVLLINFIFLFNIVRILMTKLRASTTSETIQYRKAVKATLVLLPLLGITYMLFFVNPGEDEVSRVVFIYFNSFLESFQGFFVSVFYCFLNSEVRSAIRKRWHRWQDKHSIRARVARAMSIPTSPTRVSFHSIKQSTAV

In test [1], “Monocyte chemotactic protein-3 (MCP-3) (from UniProt P80098 24-99) (ligand)” showed a LacZ activity, Gi2-transplant yeast, 10^-6 M ligand of 2.2 LacZ units and a chemotaxis of CCRL2 transfected cells, 10 nM chemokine; more cells passing across the membrane than untreated cells of 35%.
For the molecule “Monocyte chemotactic protein-1 (MCP-1) (from UniProt P13500 24-99) (ligand)”, in test [1], the LacZ activity, Gq-transplant yeast, 10^-6 M ligand came out at 5.7 LacZ units.
In test [2], SEEPPISLDLTFHLLREVLEMARAEQLAQQAHSNRKLMEII (peptide, UniProt P06850 154-194, looked up) [Corticotrophin releasing factor (CRF)] came in with a LacZ activity, Gi2-transplant yeast, 10^-6 M ligand of 6.4 LacZ units and a LacZ activity, Gi3-transplant yeast, 10^-6 M ligand of 17.2 LacZ units.

B1: macrophage inflammatory protein-4 (MIP-4) (ligand)
chain: AQVGTNKELCCLVYTSWQIPQKFIVDYSETSPQCPKPGVILLTKRGRQICADPNKKWVQKYISDLKLNA
In test [1], B1 had a LacZ activity, Gi3-transplant yeast, 10^-6 M ligand of 6.5 LacZ units and a chemotaxis of CCRL2 transfected cells, 10 nM chemokine; more cells passing across the membrane than untreated cells of 35%.
As for DNPSLSIDLTFHLLRTLLELARTQSQRERAEQNRIIFDSV (peptide, UniProt P55089 83-122, looked up) [Urocortin], the LacZ activity, Gq-transplant yeast, 10^-6 M ligand in test [2] is 6.9 LacZ units.

The values above are taken from patent US20070036781A1.
